From patent EP4596580A1 (Staidson (Beijing) Biopharmaceuticals Co., Ltd., dated 2025)
Positions count from the first letter of the chain named. Like-named read-outs stand apart in the source and are kept apart here. Each block holds one binder with its values, some of them ahead of it.

Key:
[1] = target: T1, His-mouse LIGHT (mouse); assay: ELISA, His-musLIGHT coated
T1 construct: also called His-musLIGHT
T1 chain: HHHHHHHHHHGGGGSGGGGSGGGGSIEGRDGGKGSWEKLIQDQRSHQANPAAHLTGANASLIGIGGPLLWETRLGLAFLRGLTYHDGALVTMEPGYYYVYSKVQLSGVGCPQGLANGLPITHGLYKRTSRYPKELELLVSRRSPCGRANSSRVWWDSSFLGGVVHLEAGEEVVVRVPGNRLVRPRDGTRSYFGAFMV

[2] = target: T2, His-human LIGHT (human); assay: cell-based or functional assay
T2 chain: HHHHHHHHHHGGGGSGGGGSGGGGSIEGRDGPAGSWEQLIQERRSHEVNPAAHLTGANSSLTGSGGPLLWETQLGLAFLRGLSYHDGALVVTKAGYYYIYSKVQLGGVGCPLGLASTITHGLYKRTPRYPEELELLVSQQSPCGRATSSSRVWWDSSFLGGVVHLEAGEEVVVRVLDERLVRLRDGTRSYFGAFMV

[3] = target: T2, His-human LIGHT; assay: ELISA, His-huLIGHT coated
[4] = target: T2, His-human LIGHT; assay: SPR, Biacore 8K, antibody on CM5 chip
[5] = target: T3, His-cynomolgus monkey LIGHT (cynomolgus monkey); assay: SPR, Biacore 8K, antibody on CM5 chip
T3 construct: also called His-cynoLIGHT
T3 chain: T2 chain with P32H, A33G, E47Q, V48N, S83D, V91A, T92N, S149N, A167V

[6] = target: T2, His-human LIGHT; assay: ELISA, His-huLIGHT coated
[7] = target: T4, hFc-human LIGHT (human); assay: competition ELISA, LTβR-His coated, hFc-huLIGHT added
T4 construct: also called hFc-huLIGHT

[8] = target: T2, His-human LIGHT; assay: cell-based or functional assay
[9] = target: LIGHT on the surface of HEK293-LIGHT stable cells (human, UniProt O43557 1-240); assay: cell-based or functional assay
[10] = target: T2, His-human LIGHT; assay: cell-based or functional assay
[11] = target: T2, His-human LIGHT; assay: ELISA, His-huLIGHT coated
[12] = target: T3, His-cynomolgus monkey LIGHT; assay: ELISA, His-cynoLIGHT coated
[13] = target: T2, His-human LIGHT; assay: SPR, Biacore 8K, antibody on CM5 chip, human LIGHT
[14] = target: T4, hFc-human LIGHT; assay: competition ELISA, LTβR-His coated, hFc-huLIGHT added; remark: listed apart in the source

B2: LT-m58 (antibody, human IgG4, V domains shown)
VH: QVQLQQSGAEMASPGASVTLSCKASGYTFIDHIMNWVKKRPGQGLEWIGRIYPVSGETNYNQKFMGKATFSVDRSSSTVYMVLNSLTSEDPAVYYCGRGSYYWNAMDYWGQGTTLTVSS
VL: DIVMTQSPASLAVSLGQRATISCKASQSVDFDGDSYMNWYQQKPGQPPKLLIYSASNLESGIPARFSGSGSGTDFTLNIHPVEEEDAATYYCQQSIEDPWTFGGGTKLEIK
binding result [1]: no binding | IC50, HVEM NF-κB luciferase reporter (293T-HVEM-NF-κB-Luc), free LIGHT [2]: 0.318 µg/mL | EC50 [3]: 0.0243 µg/mL | Kd [4]: 0.0696 nM | koff [4]: 2.67e-05 s⁻¹ | kon [4]: 385000 M⁻¹ s⁻¹ | Kd [5]: 0.0347 nM | koff [5]: 1.24e-05 s⁻¹ | kon [5]: 357000 M⁻¹ s⁻¹

B3: LT-m55 (antibody, human IgG4, V domains shown)
VH: EVQLQQSGAELVKPGASVKLSCKASGYTFATYYMYWVKQRPGQGLEWIGEINPTNGGTIFNEKFKTKATLTVDKSSSTAYMQLSSLTSEDSAVYYCARGNWPYWSFDVWGAGTSVTVSS
VL: B2 VL with M4L, S35N, S54A, E59D, G68A
binding result [1]: no binding | IC50, HVEM NF-κB luciferase reporter (293T-HVEM-NF-κB-Luc), free LIGHT [2]: 0.264 µg/mL | EC50 [3]: 0.0332 µg/mL | Kd [4]: 0.0685 nM | koff [4]: 6.01e-05 s⁻¹ | kon [4]: 877000 M⁻¹ s⁻¹ | Kd [5]: 0.0613 nM | koff [5]: 5.86e-05 s⁻¹ | kon [5]: 956000 M⁻¹ s⁻¹

B5: hum_LT-m85-5 (antibody, human IgG4, V domains shown)
VH: QVQLVQSGAEVKKPGASVKVSCKASGYTFTSYNVHWVRQAPGQGLEWIGAVYPGNGDTSYNQKFKGRATLTADKSTSTAYMELSSLRSEDTAVYYCARGSYYYTSSYFDHWGQGTLVTVSS
VL: DIVLTQSPDSLAVSLGERATINCKASQSVDFDGDSYMNWYQQKPGQPPKLLIYTASNLESGIPDRFSGSGSGTDFTLTISSLQAEDVAVYYCQQSYEDPFTFGQGTKVEIK
notes: humanized from LT-m85
EC50 [6]: 0.0061 nM | IC50 [7]: 0.174 nM

B6: hum_LT-m85-8 (antibody, human IgG4, V domains shown)
VH: B5 VH
VL: B5 VL with L4M, I62V
notes: humanized from LT-m85
EC50 [6]: 0.00951 nM | IC50 [7]: 0.189 nM

B7: hum_LT-m85-6 (antibody, human IgG4, V domains shown)
VH: B5 VH with I48M
VL: B5 VL
notes: humanized from LT-m85
EC50 [6]: 0.00479 nM | IC50 [7]: 0.195 nM

B9: hum_LT-m85-9 (antibody, human IgG4, V domains shown)
VH: B5 VH with A79V
VL: B5 VL with L4M, I62V
notes: humanized from LT-m85
EC50 [6]: 0.002 nM | IC50 [7]: 0.204 nM

B10: LT-m17 (antibody, human IgG4, V domains shown)
VH: QVQLQQSGPELVKPGASVKISCKASGYSFTGYFMNWVKQSHGKSLEWIGRIYPYSGDTFYNQKFNNKATLTVDKSSSTAHLELLSLTSEDSAVYYCGRSEHFGRNYGTGAVDYWGQGTSVTVSS
VL: DVVMTQTPLSLPVSLGDQASISCRSSQGLVHSNGNTYLHWYLQKPGQSPKLLIYKVSNRFSGVPDRFSGSGSGTDFTLKISRVEAEDLGIYFCSQSTHVPYTFGGGTKLEIK
IC50, HVEM NF-κB luciferase reporter (293T-HVEM-NF-κB-Luc), free LIGHT [2]: 0.184 µg/mL | EC50 [3]: 0.0871 µg/mL | Kd [5]: 0.0582 nM | koff [5]: 4.24e-06 s⁻¹ | kon [5]: 72700 M⁻¹ s⁻¹

B12: hum_LT-m37-3 (antibody, human IgG4, V domains shown)
VH: QVQLVQSGAEVKKPGASVKVSCKASGYSFTGYFINWVRQAPGQGLEWIGRIYPYNVNTFYNQNFKGRATMTADKSTSTAYMELSSLRSEDTAVYYCGRGTHYYGSSGAMDYWGQGTLVTVSS
VL: EIVLTQSPATLSVSPGERATLSCKASQNVGTAVAWYQQKPGQSPRLLIYSASNRYTGIPARFSGSGSGTEFTLTISSLQSEDFAVYFCQQYSSYPYTFGGGTKVEIK
notes: humanized from LT-m37
IC50, LTβR NF-κB luciferase reporter, free LIGHT [8]: 0.399 µg/mL | IC50, LTβR NF-κB luciferase reporter, HEK293-LIGHT cells [9]: 1.79 µg/mL | IC50, HVEM NF-κB luciferase reporter, free LIGHT [10]: 0.0747 µg/mL | EC50 [11]: 0.0875 µg/mL | EC50 [12]: 0.0554 nM

B13: hum_LT-m37-8 (antibody, human IgG4, V domains shown)
VH: B12 VH with A68V
VL: B12 VL with L4M
notes: humanized from LT-m37
IC50, LTβR NF-κB luciferase reporter, free LIGHT [8]: 0.17 µg/mL | IC50, LTβR NF-κB luciferase reporter, HEK293-LIGHT cells [9]: 3.22 µg/mL | EC50 [11]: 0.0795 µg/mL | EC50 [12]: 0.0449 nM | Kd [13]: 0.038 nM | koff [13]: 4.86e-05 s⁻¹ | kon [13]: 1.28e+06 M⁻¹ s⁻¹ | IC50 [14]: 0.0676 nM

B15: hum_LT-m37-11 (antibody, human IgG4, V domains shown)
VH: B12 VH
VL: B12 VL with F87Y
notes: humanized from LT-m37
IC50, LTβR NF-κB luciferase reporter, free LIGHT [8]: 0.203 µg/mL | IC50, LTβR NF-κB luciferase reporter, HEK293-LIGHT cells [9]: 2.93 µg/mL | EC50 [11]: 0.0907 µg/mL | EC50 [12]: 0.0494 nM | Kd [13]: 0.062 nM | koff [13]: 7.69e-05 s⁻¹ | kon [13]: 1.24e+06 M⁻¹ s⁻¹ | IC50 [14]: 0.0864 nM

B18: hum_LT-m37-12 (antibody, human IgG4, V domains shown)
VH: B12 VH with A68V
VL: B12 VL with F87Y
notes: humanized from LT-m37
IC50, LTβR NF-κB luciferase reporter, free LIGHT [8]: 0.144 µg/mL | IC50, LTβR NF-κB luciferase reporter, HEK293-LIGHT cells [9]: 2.57 µg/mL | EC50 [11]: 0.0878 µg/mL | EC50 [12]: 0.053 nM | Kd [13]: 0.0575 nM | koff [13]: 6.75e-05 s⁻¹ | kon [13]: 1.18e+06 M⁻¹ s⁻¹ | IC50 [14]: 0.0773 nM

Further lines, results first:

binding result [1]: no binding | IC50, HVEM NF-κB luciferase reporter (293T-HVEM-NF-κB-Luc), free LIGHT [2]: 0.264 µg/mL | EC50 [3]: 0.0112 µg/mL | Kd [4]: 0.0557 nM | koff [4]: 5.61e-05 s⁻¹ | kon [4]: 1.01e+06 M⁻¹ s⁻¹ | Kd [5]: 0.0487 nM | koff [5]: 4.89e-05 s⁻¹ | kon [5]: 1e+06 M⁻¹ s⁻¹
B1: LT-m64 (antibody, human IgG4, V domains shown)
VH: EVKLEESGAELVKPGASVRLSCKTSGYTFTNYYVYWVKQRPGQGLEWIGEINPTNGDPNFNEKFKSKATLTVDKSSSTAYMHLSSLTSEDSAVYYCTRSNWDYGNAMDFWGQGTSVTVSS
VL: B2 VL with S35G, S54K, N57H, E59D, G68A, W100F, G104S

binding result [1]: no binding | IC50, HVEM NF-κB luciferase reporter (293T-HVEM-NF-κB-Luc), free LIGHT [2]: 0.124 µg/mL | EC50 [3]: 0.0121 µg/mL | Kd [4]: 0.0674 nM | koff [4]: 5.28e-05 s⁻¹ | kon [4]: 783000 M⁻¹ s⁻¹ | Kd [5]: 0.0601 nM | koff [5]: 6.72e-05 s⁻¹ | kon [5]: 1.12e+06 M⁻¹ s⁻¹
B4: LT-m85 (antibody, human IgG4, V domains shown)
VH: EVQLQQSGAELVKPGASVKMSCKASGYTFTSYNVHWVKQTPGQGLEWIGAVYPGNGDTSYNQKFKGKATLTADKSSNTAYMQLSSLTSEDSAVYYCARGSYYYTSSYFDHWGQGTTLTVSS
VL: B2 VL with M4L, S54T, S67T, I96Y, W100F, G104S

EC50 [6]: 0.00542 nM | IC50 [7]: 0.223 nM
B8: hum_LT-m85-7 (antibody, human IgG4, V domains shown)
VH: B5 VH with A79V
VL: B5 VL
notes: humanized from LT-m85

EC50 [3]: 0.0835 µg/mL | Kd [5]: 0.16 nM | koff [5]: 1.26e-05 s⁻¹ | kon [5]: 79100 M⁻¹ s⁻¹
B11: LT-m18 (antibody, V domains shown)
VH: B10 VH with Q1E, Q3K, Q5L, Q6E
VL: B10 VL with V2I, M4L, T7S, G28S, I90V, Y101L, G105D, K108R

IC50, LTβR NF-κB luciferase reporter, free LIGHT [8]: 0.153 µg/mL | IC50, LTβR NF-κB luciferase reporter, HEK293-LIGHT cells [9]: 4.46 µg/mL | EC50 [11]: 0.0918 µg/mL | EC50 [12]: 0.0463 nM
B14: hum_LT-m37-10 (antibody, human IgG4, V domains shown)
VH: B12 VH with M70L
VL: B12 VL with F87Y
notes: humanized from LT-m37

IC50, LTβR NF-κB luciferase reporter, free LIGHT [8]: 0.135 µg/mL | IC50, LTβR NF-κB luciferase reporter, HEK293-LIGHT cells [9]: 3.72 µg/mL | EC50 [11]: 0.0801 µg/mL | EC50 [12]: 0.0474 nM | Kd [13]: 0.041 nM | koff [13]: 5.34e-05 s⁻¹ | kon [13]: 1.3e+06 M⁻¹ s⁻¹ | IC50 [14]: 0.069 nM
B16: hum_LT-m37-7 (antibody, human IgG4, V domains shown)
VH: B12 VH
VL: B12 VL with L4M
notes: humanized from LT-m37

IC50, LTβR NF-κB luciferase reporter, free LIGHT [8]: 0.227 µg/mL | IC50, LTβR NF-κB luciferase reporter, HEK293-LIGHT cells [9]: 3.86 µg/mL | EC50 [11]: 0.0825 µg/mL | EC50 [12]: 0.0478 nM | Kd [13]: 0.383 nM | koff [13]: 8.03e-05 s⁻¹ | kon [13]: 210000 M⁻¹ s⁻¹ | IC50 [14]: 0.083 nM
B17: hum_LT-m37-9 (antibody, human IgG4, V domains shown)
VH: B12 VH with G44S, M70L
VL: B12 VL with F87Y
notes: humanized from LT-m37
